This note sets out measurements from patent publication US20240392035A1 (DENALI THERAPEUTICS, published 2024).

In general, Kd refers to a measure of binding affinity in units of concentration.

The target of assay [1] is human TfR on cells (human, UniProt P02786 1-760). Description: cell-based or functional assay.
The target of assay [2] is HER2 on HER2-overexpressing tumor cell lines (UniProt P04626 23-1255, limits assumed). Description: cell-based or functional assay.
For assay [3], the target named is T1, recombinant human TfR apical domain (human, UniProt P02786 198-378).
T1 construct: also called recombinant TfR apical domain; transferrin receptor protein 1
T1 sequence (P02786 198-378 limits assumed): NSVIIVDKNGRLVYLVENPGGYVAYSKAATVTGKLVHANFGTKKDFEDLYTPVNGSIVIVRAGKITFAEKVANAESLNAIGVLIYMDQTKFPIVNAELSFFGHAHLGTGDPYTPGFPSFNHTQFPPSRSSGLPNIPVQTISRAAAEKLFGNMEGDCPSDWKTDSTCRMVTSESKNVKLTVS
The assay is described as follows: SPR (Biacore), protein captured on anti-human Fab chip, human TfR apical domain injected, 1:1 Langmuir fit. The method, then:
Affinities of the bispecific proteins were measured by SPR using a Biacore T200 or a Biacore 8K. Biacore™ Series S CM5 sensor chips were immobilized with monoclonal mouse anti-human IgG (Fc) antibody for HER2 affinity measurements or mouse anti-human Fab for TfR affinity measurements (human antibody or Fab capture kit from GE Healthcare). Serial 3-fold dilutions of analyte (recombinant HER2 extracellular domain or recombinant TfR apical domain) were injected at a flow rate of […]. Each sample was analyzed using a 3-minute association and a 10-minute dissociation for HER2 extracellular domain binding and a 40-second association and a 3-minute dissociation for human TfR apical domain binding. After each injection, the chip was regenerated using 3 M MgCl₂ or 50 mM glycine at pH 2.0. Binding response was corrected by subtracting the RU from a flow cell capturing an irrelevant IgG at similar density. A 1:1 Languir model of simultaneous fitting of kon and koff was used for kinetics analysis. […] The two constructs are described below.
(In general: Surface plasmon resonance follows binding to a sensor surface in real time, without labels.)

B1: anti-HER2_DIV/DII_scFv_1 (bispecific antibody, human IgG1, kappa, L234A L235A)
heavy 1: EVQLVESGGGLVQPGGSLRLSCAASGFTFTDYTMDWVRQAPGKGLEWVADVNPNSGGSIYNQRFKGRFTLSVDRSKNTLYLQMNSLRAEDTAVYYCARNLGPSFYFDYWGQGTLVTVSSASTKGPSVFPLAPSSKSTSGGTAALGCLVKDYFPEPVTVSWNSGALTSGVHTFPAVLQSSGLYSLSSVVTVPSSSLGTQTYICNVNHKPSNTKVDKKVEPKSCDKTHTCPPCPAPEAAGGPSVFLFPPKPKDTLMISRTPEVTCVVVDVSHEDPEVKFNWYVDGVEVHNAKTKPREEQYNSTYRVVSVLTVLHQDWLNGKEYKCKVSNKALPAPIEKTISKAKGQPREPQVYTLPPSRDELTKNQVSLWCLVKGFYPSDIAVEWESYGTEWSNYKTTPPVLDSDGSFFLYSKLTVSKEEWQQGFVFSCSVMHEALHNHYTQKSLSLSPGK
heavy 2: not shown
light: not shown
On to B1, for which the “maximum growth inhibition, OE19 cells, WST-1 assay” value in assay [1] and in assay [2] was around 80% each time.

B2: Bispecific Protein #9 (bispecific antibody, human IgG1, kappa, L234A L235A)
heavy 1: EVQLVESGGGLVQPGGSLRLSCAASGFTFTDYTMDWVRQAPGKGLEWVADVNPNSGGSIYNQRFKGRFTLSVDRSKNTLYLQMNSLRAEDTAVYYCARNLGPSFYFDYWGQGTLVTVSSASTKGPSVFPLAPSSKSTSGGTAALGCLVKDYFPEPVTVSWNSGALTSGVHTFPAVLQSSGLYSLSSVVTVPSSSLGTQTYICNVNHKPSNTKVDKKVEPKSCDKTHTCPPCPAPEAAGGPSVFLFPPKPKDTLMISRTPEVTCVVVDVSHEDPEVKFNWYVDGVEVHNAKTKPREEQYNSTYRVVSVLTVLHQDWLNGKEYKCKVSNKALPAPIEKTISKAKGQPREPQVYTLPPSRDELTKNQVSLWCLVKGFYPSDIAVEWESYGTEWSNYKTTPPVLDSDGSFFLYSKLTVSKEEWQQGFVFSCSVMHEALHNHYTQKSLSLSPGK
heavy 2: not shown
light: not shown
For the molecule B2, in assay [3], the Kd is 500 nM.

B3: Bispecific Protein #2 (bispecific antibody, human IgG1, kappa, L234A L235A)
heavy 1: EVQLVESGGGLVQPGGSLRLSCAASGFTFTDYTMDWVRQAPGKGLEWVADVNPNSGGSIYNQRFKGRFTLSVDRSKNTLYLQMNSLRAEDTAVYYCARNLGPSFYFDYWGQGTLVTVSSASTKGPSVFPLAPSSKSTSGGTAALGCLVKDYFPEPVTVSWNSGALTSGVHTFPAVLQSSGLYSLSSVVTVPSSSLGTQTYICNVNHKPSNTKVDKKVEPKSCDKTHTCPPCPAPEAAGGPSVFLFPPKPKDTLMISRTPEVTCVVVDVSHEDPEVKFNWYVDGVEVHNAKTKPREEQYNSTYRVVSVLTVLHQDWLNGKEYKCKVSNKALPAPIEKTISKAKGQPREPQVYTLPPSRDELTKNQVSLWCLVKGFYPSDIAVEWESYGTEWSNYKTTPPVLDSDGSFFLYSKLTVSKEEWQQGFVFSCSVMHEALHNHYTQKSLSLSPGK
heavy 2: not shown
light: not shown
In the case of B3, the Kd in assay [3] came to 480 nM.
